# Measured values as given in the Immune Epitope Database (IEDB).
# Experiments:
# HLA-C*06:02 [1] = assay: IEDB peptide-MHC binding, purified MHC/direct/fluorescence; filed as Kd, often an IC50 or EC50 that approximates it; ≥ and ≤ were set here for values at or beyond the usual limits of such assays
# HLA-B*15:42 = assay: IEDB peptide-MHC binding, purified MHC/competitive/fluorescence; filed as Kd, often an IC50 or EC50 that approximates it; ≥ and ≤ were set here for values at or beyond the usual limits of such assays
# HLA-B*27:20 = assay: as above
# HLA-B*45:06 = assay: as above
# HLA-B*83:01 = assay: as above
# HLA-B*73:01 [2] = assay: as above
# HLA-A*69:01 = assay: IEDB peptide-MHC binding, purified MHC/direct/fluorescence; filed as Kd, often an IC50 or EC50 that approximates it; ≥ and ≤ were set here for values at or beyond the usual limits of such assays
# HLA-A*11:01 = assay: as above
# HLA-A*01:01 = assay: as above
# HLA-A*03:01 = assay: as above
# HLA-A*31:01 = assay: as above
# HLA-B*15:01 = assay: as above
# HLA-C*15:02 = assay: as above
# HLA-B*58:01 = assay: as above
# HLA-B*07:02 = assay: as above
# HLA-B*18:01 = assay: as above; conditions: source organism: Rickettsia prowazekii
# HLA-B*73:01 [3] = assay: as above
# HLA-B*15:09 = assay: as above; conditions: source organism: Rickettsia typhi str. Wilmington
# HLA-A*68:02 = assay: as above; conditions: source organism: Rickettsia prowazekii
# HLA-B*08:02 = assay: as above; conditions: source organism: Rickettsia typhi str. Wilmington
# HLA-B*57:01 = assay: as above; conditions: source organism: Rickettsia prowazekii
# HLA-B*48:01 = assay: as above
# HLA-A*02:01 [4] = assay: as above
# HLA-B*08:03 = assay: as above; conditions: source organism: Rickettsia typhi str. Wilmington
# HLA-A*26:01 = assay: as above
# HLA-B*27:05 = assay: as above
# HLA-B*15:17 = assay: IEDB peptide-MHC binding, purified MHC/competitive/fluorescence; filed as Kd, often an IC50 or EC50 that approximates it; ≥ and ≤ were set here for values at or beyond the usual limits of such assays; conditions: source organism: Rickettsia prowazekii str. Madrid E
# HLA-B*08:01 = assay: as above; conditions: source organism: Rickettsia prowazekii str. Madrid E
# HLA-A*30:01 = assay: as above; conditions: source organism: Rickettsia prowazekii str. Madrid E
# HLA-C*08:02 = assay: IEDB peptide-MHC binding, purified MHC/direct/fluorescence; filed as Kd, often an IC50 or EC50 that approximates it; ≥ and ≤ were set here for values at or beyond the usual limits of such assays; conditions: source organism: Escherichia coli HS
# HLA-B*51:01 = assay: as above; conditions: source organism: Escherichia coli O157:H7
# HLA-C*06:02 [5] = assay: IEDB peptide-MHC binding, purified MHC/competitive/fluorescence; filed as Kd, often an IC50 or EC50 that approximates it; ≥ and ≤ were set here for values at or beyond the usual limits of such assays; conditions: source organism: Escherichia coli HS
# HLA-C*14:02 = assay: as above; conditions: source organism: Escherichia coli HS
# HLA-B*15:02 = assay: IEDB peptide-MHC binding, purified MHC/direct/fluorescence; filed as Kd, often an IC50 or EC50 that approximates it; ≥ and ≤ were set here for values at or beyond the usual limits of such assays; conditions: source organism: Yersinia enterocolitica subsp. enterocolitica 8081
# HLA-A*02:19 = assay: as above; conditions: source organism: Yersinia enterocolitica subsp. enterocolitica 8081
# HLA-B*46:01 = assay: as above; conditions: source organism: Yersinia pestis Nepal516
# HLA-B*40:01 [6] = assay: as above; conditions: source organism: Yersinia pestis Nepal516
# HLA-B*35:01 = assay: as above; conditions: source organism: Yersinia pestis
# HLA-B*44:02 = assay: as above; conditions: source organism: Yersinia pestis Nepal516
# HLA-A*02:01 [7] = assay: IEDB peptide-MHC binding, purified MHC/competitive/radioactivity; ≥ and ≤ were set here for values at or beyond the usual limits of such assays; conditions: source organism: Homo sapiens
# HLA-B*40:01 [8] = assay: IEDB peptide-MHC binding, purified MHC/competitive/fluorescence; filed as Kd, often an IC50 or EC50 that approximates it; ≥ and ≤ were set here for values at or beyond the usual limits of such assays; conditions: source organism: Salmonella enterica subsp. enterica serovar Paratyphi B str. SPB7
# HLA-B*39:01 = assay: as above; conditions: source organism: Salmonella enterica subsp. enterica serovar Paratyphi B str. SPB7
# [9] = source organism: Human herpesvirus 4 strain B95-8
# [10] = source organism: Rickettsia prowazekii
# [11] = source organism: Rickettsia prowazekii str. Madrid E
# [12] = source organism: Escherichia coli HS
# [13] = source organism: Yersinia pestis
# [14] = source organism: Yersinia pestis Nepal516
# [15] = source organism: Brucella abortus 2308
# [16] = source organism: human gammaherpesvirus 4
# [17] = source organism: Salmonella enterica subsp. enterica serovar Paratyphi B str. SPB7
sequence,measurement,setting,value
TRYYWDIHL,Kd,HLA-C*06:02 [1]; source organism: Escherichia coli O157:H7 str. EDL933,0.051 µM
RRRRRRAAL,Kd,HLA-B*15:42; [9],≥ 5 µM
same,Kd,HLA-B*27:20; [9],≤ 0.001 µM
same,Kd,HLA-B*45:06; [9],≥ 5 µM
same,Kd,HLA-B*83:01; [9],≥ 5 µM
KEWCGNLIV,Kd,HLA-B*73:01 [2]; source organism: Entamoeba histolytica,≥ 20 µM
RRNRKALWL,Kd,HLA-A*69:01; [10],≥ 20 µM
same,Kd,HLA-A*11:01; [10],≥ 20 µM
same,Kd,HLA-C*06:02 [1]; [11],0.031 µM
same,Kd,HLA-A*01:01; [10],≥ 20 µM
same,Kd,HLA-A*03:01; [10],≥ 20 µM
same,Kd,HLA-A*31:01; [10],≥ 20 µM
same,Kd,HLA-B*15:01; [10],≥ 20 µM
same,Kd,HLA-C*15:02; [11],≥ 20 µM
same,Kd,HLA-B*58:01; [10],≥ 20 µM
same,Kd,HLA-B*07:02; [10],6.89 µM
same,Kd,HLA-B*18:01,≥ 20 µM
same,Kd,HLA-B*73:01 [3]; [10],3.37 µM
same,Kd,HLA-B*15:09,≥ 20 µM
same,Kd,HLA-A*68:02,≥ 20 µM
same,Kd,HLA-B*08:02,≥ 20 µM
same,Kd,HLA-B*57:01,≥ 20 µM
same,Kd,HLA-B*48:01; [10],≥ 20 µM
same,Kd,HLA-A*02:01 [4]; [10],≥ 20 µM
same,Kd,HLA-B*08:03,≥ 20 µM
same,Kd,HLA-A*26:01; source organism: Rickettsia typhi str. Wilmington,≥ 20 µM
same,Kd,HLA-B*27:05; [10],0.0465 µM
same,Kd,HLA-B*15:17,≥ 20 µM
same,Kd,HLA-B*08:01,3 µM
same,Kd,HLA-A*30:01,≥ 20 µM
YLREHIRAM,Kd,HLA-C*08:02,≥ 20 µM
same,Kd,HLA-C*15:02; [12],≥ 20 µM
same,Kd,HLA-B*51:01,≥ 20 µM
same,Kd,HLA-B*07:02; source organism: Escherichia coli O157:H7,0.006 µM
same,Kd,HLA-C*06:02 [5],0.0684 µM
same,Kd,HLA-B*15:42; [12],≥ 5 µM
same,Kd,HLA-B*45:06; [12],≥ 5 µM
same,Kd,HLA-C*14:02,0.0018 µM
same,Kd,HLA-B*83:01; [12],≥ 5 µM
WLWVSSSDM,Kd,HLA-A*69:01; [13],0.114 µM
same,Kd,HLA-A*11:01; [14],≥ 20 µM
same,Kd,HLA-B*15:02,0.003 µM
same,Kd,HLA-A*01:01; [14],≥ 20 µM
same,Kd,HLA-A*03:01; [14],≥ 20 µM
same,Kd,HLA-A*31:01; [14],≥ 20 µM
same,Kd,HLA-B*15:01; [13],1.37 µM
same,Kd,HLA-A*02:19,0.012 µM
same,Kd,HLA-B*58:01; [14],≥ 20 µM
same,Kd,HLA-B*07:02; [13],≥ 5 µM
same,Kd,HLA-B*46:01,≥ 20 µM
same,Kd,HLA-B*40:01 [6],≥ 20 µM
same,Kd,HLA-B*35:01,0.0224 µM
same,Kd,HLA-B*44:02,≥ 20 µM
same,Kd,HLA-A*02:01 [4]; [13],1 µM
same,Kd,HLA-A*26:01; [14],≥ 20 µM
same,Kd,HLA-B*27:05; [13],≥ 5 µM
YRSGVPVEK,Kd,HLA-B*73:01 [3]; source organism: Brucella suis 1330,≥ 20 µM
same,Kd,HLA-B*48:01; [15],≥ 20 µM
same,Kd,HLA-B*27:05; [15],0.0619 µM
YRGGGQQHV,Kd,HLA-B*73:01 [2]; source organism: Brucella abortus S19,3 µM
ILTVILGVL,IC50,HLA-A*02:01 [7],0.381 µM
RRLHRLLLM,Kd,HLA-B*15:42; [16],≥ 5 µM
same,Kd,HLA-B*27:20; [16],≤ 0.0001 µM
same,Kd,HLA-B*45:06; [16],≥ 5 µM
same,Kd,HLA-B*83:01; [16],≥ 5 µM
YESSHWLVV,Kd,HLA-B*15:42; [17],≥ 5 µM
same,Kd,HLA-B*27:20; [17],0.113 µM
same,Kd,HLA-B*40:01 [8],0.005 µM
same,Kd,HLA-B*39:01,0.0372 µM
same,Kd,HLA-B*45:06; [17],≥ 5 µM
same,Kd,HLA-B*83:01; [17],≥ 5 µM
